± gives the standard deviation of the averaged measurements.
B1: library; a variant is named by its letters at N, in order (parent)
chain: GCUGUCACCGGAAUACCAGCAUCGUCUUGAUGCCCUUGGAAGUCCGGUCUGAUGAGUCCNNNNNGGACGAAACAGC

Assays:
[1] = variants of: B1; test: FACS-Seq fitted mean relative fluorescence mCherry/BFP without ligand (log10 relative fluorescence); higher = higher reporter protein expression; conditions: HEK293T, ligand present: no
Procedure, shortened: (§1)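 Fluorescence is reported as a normalized fitted mean of sorted-bin read counts. Lentivirally transduced HEK293T libraries (mCherry ribozyme-switch reporter, EF1α-BFP marker) were enriched, treated with or without ligand for 48 h, and sorted into 6 mCherry/BFP bins for MiSeq sequencing of PCR-amplified genomic DNA. The normal fit was on log10(mCherry/BFP), scaled to five spiked-in control ribozymes.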

[2] = variants of: B1; test: normalized RNA/DNA level with ligand (relative to sTRSVctl = 100) (log10 (% of sTRSVctl)); higher = less ribozyme self-cleavage, higher mRNA level; conditions: ligand concentration (+) RNA-Seq: 5 mM, HEK293T, reporter: mCherry (pCS4076), ligand present: yes
Procedure, shortened: (§2)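 Ribozyme switch library plasmids linked to reporters were introduced into HEK293T cells at 4 µg per 6-well well, with ligand, if any, added 1 h before. Total RNA was extracted with EDTA 72 h later, reverse-transcribed, amplified, barcoded and sequenced. RNA level was computed from RNA over DNA reads relative to a spiked-in non-cleaving sequence or the top sequences, then scaled and log-transformed. The top set was 25 sequences, values were ×100 and log10, and the cutoff was ≥100 DNA reads.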

[3] = variants of: B1; test: normalized RNA/DNA level without ligand (relative to sTRSVctl = 100) (log10 (% of sTRSVctl)); higher = less ribozyme self-cleavage, higher mRNA level; conditions: HEK293T, reporter: mCherry (pCS4076), ligand present: no
Procedure, shortened: as §2

[4] = variants of: B1; test: FACS-Seq fitted mean relative fluorescence mCherry/BFP with ligand (log10 relative fluorescence); ligand concentration (+) FACS-Seq: 1 mM; higher = higher reporter protein expression; conditions: HEK293T, ligand present: yes
Procedure, shortened: as §1

Variant	FACS-Seq fitted mean (log10) [1]	normalized RNA/DNA level with ligand (log10) [2]	normalized RNA/DNA level without ligand (log10) [3]	FACS-Seq fitted mean (log10) [4]
UUUCC	1.01 ± 0.062	1.99 ± 0.028	1.97 ± 0.04	0.9258 ± 0.0036
UUGAU	0.68 ± 0.041	2.06 ± 0.1	1.82 ± 0.044	0.708 ± 0.03
UUGAA	0.273 ± 0.006	1.94 ± 0.08	1.29 ± 0.064	0.619 ± 0.026
UUGAC	0.872 ± 0.033	2.05 ± 0.042	1.93 ± 0.075	0.849 ± 0.085
GUCCU	1.16 ± 0.13	2.03 ± 0.052	2 ± 0.1	1.13 ± 0.12
CUUAC	0.44 ± 0.11	2.04 ± 0.065	1.95 ± 0.15	0.194 ± 0.17
CUUAA	0.633 ± 0.018	1.98 ± 0.15	1.61 ± 0.14	0.961 ± 0.12
CUUAU	0.864 ± 0.067	2.04 ± 0.071	1.907 ± 0.014	0.901 ± 0.013
GUAGA	0.949 ± 0.15	1.8 ± 0.057	1.66 ± 0.14	0.935 ± 0.15
CUCCC	0.836 ± 0.04	2.05 ± 0.12	2 ± 0.14	0.811 ± 0.012
CUCCU	0.814 ± 0.015	2.005 ± 0.011	1.88 ± 0.098	0.682 ± 0.033
CUCCA	1.01 ± 0.29	2.03 ± 0.048	1.87 ± 0.038	0.946 ± 0.15
UUAGC	0.886 ± 0.052	1.97 ± 0.029	1.94 ± 0.042	0.916 ± 0.035
UCUUC	–	2.03 ± 0.1	1.97 ± 0.046	–
CUAUC	1.23 ± 0.19	1.89 ± 0.059	1.93 ± 0.073	1.16 ± 0.078
CUAUA	0.141 ± 0.018	1.972 ± 0.0076	1.61 ± 0.08	0.384 ± 0.024
CUAUU	0.965 ± 0.18	2.03 ± 0.023	1.85 ± 0.1	0.924 ± 0.012
CUACU	0.761 ± 0.11	1.96 ± 0.087	1.8 ± 0.019	0.924 ± 0.034
CUACC	0.996 ± 0.11	1.968 ± 0.015	1.96 ± 0.11	1.02 ± 0.03
UUUAU	0.444 ± 0.021	2.0202 ± 0.001	1.93 ± 0.06	0.417 ± 0.012
UUUAA	0.514 ± 0.017	2.05 ± 0.08	1.69 ± 0.019	0.695 ± 0.019
UUUAC	0.968 ± 0.059	2.06 ± 0.073	1.98 ± 0.066	0.808 ± 0.084
UUACG	1.08 ± 0.025	2.019 ± 0.0074	1.93 ± 0.029	1.02 ± 0.027
UUACC	0.865 ± 0.28	2.02 ± 0.022	1.96 ± 0.095	0.847 ± 0.12
UUACU	1.05 ± 0.07	2.08 ± 0.052	1.93 ± 0.058	1.01 ± 0.18

Variant	FACS-Seq fitted mean (log10) [1]	normalized RNA/DNA level with ligand (log10) [2]	normalized RNA/DNA level without ligand (log10) [3]	FACS-Seq fitted mean (log10) [4]
AUUGU	1.06 ± 0.018	2.04 ± 0.047	1.88 ± 0.064	1.15 ± 0.022
AUUGC	1.19 ± 0.033	2.0706 ± 0.0016	2.01 ± 0.087	1.02 ± 0.1
AUUGA	0.66 ± 0.051	1.99 ± 0.038	1.79 ± 0.08	0.85337 ± 0.00081
CUUUU	1.04 ± 0.014	1.992 ± 0.0085	1.91 ± 0.045	1.15 ± 0.12
CUUUC	1.07 ± 0.048	2.07 ± 0.067	2 ± 0.092	0.998 ± 0.19
UUUUU	0.93 ± 0.071	2.01 ± 0.027	1.95 ± 0.15	0.991 ± 0.017
UUUUC	0.917 ± 0.042	2.01 ± 0.077	1.99 ± 0.18	0.94 ± 0.041
AUAGC	0.922 ± 0.023	1.94 ± 0.082	1.87 ± 0.12	0.9641 ± 0.0048
AUAGA	0.592 ± 0.06	1.958 ± 0.018	1.57 ± 0.15	0.972 ± 0.13
AUAGG	0.526 ± 0.084	1.994 ± 0.0048	1.84 ± 0.068	0.441 ± 0.063
AUAGU	0.0428 ± 0.058	2.04 ± 0.045	1.76 ± 0.038	0.179 ± 0.18
GUCUG	0.742 ± 0.06	1.96 ± 0.074	1.87 ± 0.11	0.898 ± 0.069
AUGAU	0.439 ± 0.07	2.01 ± 0.086	1.75 ± 0.12	0.262 ± 0.027
AUGAC	0.5991 ± 0.0031	1.914 ± 0.016	1.87 ± 0.16	0.786 ± 0.021
AUGAA	0.317 ± 0.045	1.94 ± 0.04	1.52 ± 0.074	0.5036 ± 0.0038
AUGAG	0.655 ± 0.014	1.914 ± 0.0079	1.812 ± 0.0077	0.868 ± 0.029
AUCCA	0.993 ± 0.031	2 ± 0.13	1.95 ± 0.1	0.788 ± 0.066
AUCCG	0.573 ± 0.011	1.92 ± 0.097	1.96 ± 0.014	0.591 ± 0.063
UUCCG	0.818 ± 0.089	2.02 ± 0.032	2.017 ± 0.01	0.751 ± 0.086
UUCCC	1.02 ± 0.027	1.97 ± 0.04	1.99 ± 0.031	0.9913 ± 0.0095
UUCAA	–	2.08 ± 0.056	1.86 ± 0.12	–
CUCAA	0.816 ± 0.072	1.99 ± 0.05	1.67 ± 0.022	0.914 ± 0.068
CUCAU	1.03 ± 0.12	1.973 ± 0.0058	1.85 ± 0.06	1.07 ± 0.03
CUCAC	1.14 ± 0.019	2.02 ± 0.075	2.02 ± 0.13	1.12 ± 0.075
AUCUC	0.832 ± 0.12	2.03 ± 0.032	1.97 ± 0.013	0.758 ± 0.14

Variant	FACS-Seq fitted mean (log10) [1]	normalized RNA/DNA level with ligand (log10) [2]	normalized RNA/DNA level without ligand (log10) [3]	FACS-Seq fitted mean (log10) [4]
AUCUU	0.605 ± 0.046	2.03 ± 0.055	1.93 ± 0.086	0.585 ± 0.0056
AUCUA	0.874 ± 0.15	1.99 ± 0.087	1.89 ± 0.12	0.828 ± 0.069
GUUGU	0.526 ± 0.054	1.93 ± 0.19	1.84 ± 0.058	0.701 ± 0.16
CUCGA	0.868 ± 0.018	2.04 ± 0.076	1.95 ± 0.12	0.883 ± 0.1
AUUAC	1.05 ± 0.17	1.99 ± 0.021	1.96 ± 0.12	0.926 ± 0.096
AUUAA	0.68 ± 0.04	1.94 ± 0.11	1.74 ± 0.099	0.832 ± 0.041
AUUAU	0.905 ± 0.075	2.01 ± 0.021	1.88 ± 0.097	0.861 ± 0.095
AUUAG	0.738 ± 0.021	2.049 ± 0.0068	1.9 ± 0.094	0.738 ± 0.013
CUAGA	0.973 ± 0.064	1.96 ± 0.084	1.83 ± 0.04	0.9812 ± 0.0091
CUGAU	1.02 ± 0.13	1.995 ± 0.013	1.7215 ± 0.00053	1.07 ± 0.082
CUGAC	0.906 ± 0.093	1.99 ± 0.056	1.99 ± 0.11	0.902 ± 0.031
CUGAA	0.3855 ± 0.0027	2.006 ± 0.0026	1.317 ± 0.0043	0.763 ± 0.15
CAUUC	–	2.07 ± 0.066	1.92 ± 0.099	–
AUGGC	0.932 ± 0.11	2.008 ± 0.0029	1.88 ± 0.085	0.903 ± 0.041
AUGGU	0.596 ± 0.13	2.02 ± 0.032	1.78 ± 0.044	0.728 ± 0.049
AUGGA	0.368 ± 0.04	1.94 ± 0.043	1.68 ± 0.16	0.63116 ± 0.00056
AUCGG	0.827 ± 0.073	1.91 ± 0.11	1.87 ± 0.051	0.782 ± 0.12
AUCGU	0.902 ± 0.057	2.03 ± 0.13	1.93 ± 0.042	0.848 ± 0.063
AUCGA	0.863 ± 0.17	2.02 ± 0.087	1.76 ± 0.19	0.825 ± 0.13
AUCGC	0.925 ± 0.082	1.977 ± 0.017	1.92 ± 0.11	0.889 ± 0.11
CUGUU	-0.291 ± 0.011	1.93 ± 0.061	1.81 ± 0.07	-0.12 ± 0.062
CUGUA	0.501 ± 0.02	2.08 ± 0.067	1.61 ± 0.052	0.643 ± 0.013
CUGUC	0.555 ± 0.065	2.021 ± 0.014	1.99 ± 0.021	0.5114 ± 0.0041

— the supplement of paper PMC6757056
